Series [1] concerns the target T1, CD25 (IL-2 receptor alpha, IL2RA) (Homo sapiens, UniProt P01589 P01589:22-240). As to the kind of experiment: pulldown; negative control used for normalisation; 2 mM CaCl2, 37 C, RT-qPCR. The conditions noted are these: tags: His-tag; Thermo Fisher. How it is done: (§1) Aptamer binding to recombinant CD25 protein or CD25-IL2 receptor-ligand complex-coated Dynabeads was measured as follows. Streptavidin-coated Dynabeads, antibody-coupling kit, and Dynabeads for His-tagged protein binding were obtained from Thermo Fisher. Histidine-tagged recombinant human CD25 (Thermo Fisher, USA) was coated onto His-tag-binding Dynabeads (Thermo Fisher, USA). Protein coated beads were blocked with binding buffer [HEPES-buffered saline with 2 mM CaCl2) containing 0.1 mg/ml BSA and tRNA. In cases where CD25-IL2 complexes were tested, equimolar amounts of IL2 was incubated with CD25-coated beads for 30 minutes at 37 degrees Celsius and the unbound IL2 was washed away. Folded aptamers were then incubated with CD25- or CD25-IL2-coated beads at a concentration of 100 nM for 30 minutes at 37 degrees Celsius under rotation. Beads were then washed thrice with binding buffer at 37 degrees Celsius. Bound RNA aptamers were extracted using Trizol spiked with M12-23 reference control and were quantified using SyBR green-based RT-qPCR assay. The bead-bound SEL2 aptamers were normalized to M12-23 reference control before further analysis. The values obtained for Treg-binding aptamers were normalized to the negative control aptamer, C-248, and plotted. Nucleotides corresponding to the N20 region are underlined and italicized.

Series [2] deals with T1, CD25 (IL-2 receptor alpha, IL2RA). As to the kind of experiment: pulldown; 100 nM RNA, CD25 Dynabeads, 2 mM CaCl2, 37 C, RT-qPCR; greater than C-248. The conditions noted are these: tags: His-tag; Thermo Fisher. Here is the method:
as §1

Series [3] addresses T2, CD25 (IL2RA)-IL2 complex (Homo sapiens, UniProt P01589;P60568 P01589:22-240,P60568:21-153). As to the kind of experiment: pulldown; binding increased vs unoccupied CD25; 2 mM CaCl2, 37 C, RT-qPCR; correlates with IL2 occupancy (R2=0.661). Particulars: tags: CD25 His-tagged, Thermo Fisher. How it is done: as §1
A general note: In qPCR the cycle at which signal appears reflects the starting amount.

Series [4] addresses T2, CD25 (IL2RA)-IL2 complex. As to the kind of experiment: pulldown; binding increased vs unoccupied CD25; 2 mM CaCl2, 37 C, RT-qPCR; correlates with IL2 occupancy (R2=0.724). The conditions noted are these: tags: CD25 His-tagged, Thermo Fisher. How it is done: as §1
Series [5] deals with T1, CD25 (IL-2 receptor alpha, IL2RA). As to the kind of experiment: pulldown; 100 nM RNA, CD25 Dynabeads, HEPES saline 2 mM CaCl2, BSA, tRNA, 37 C, RT-qPCR; greater than C-248. Particulars: tags: His-tag; Thermo Fisher. How it is done:
as §1

Series [6] shares this target. As to the kind of experiment: pulldown; 100 nM RNA, CD25 Dynabeads, 2 mM CaCl2, 37 C, RT-qPCR; prefers unoccupied CD25. Particulars: tags: His-tag; Thermo Fisher. Here is the method: as §1
Series [7] addresses T2, CD25 (IL2RA)-IL2 complex. The experiment in a line: pulldown; similar binding to unoccupied CD25 and complex; 2 mM CaCl2, 37 C, RT-qPCR. The conditions noted are these: tags: CD25 His-tagged, Thermo Fisher. How it is done:
as §1

T2 sequence (P01589 22-240, chain 1 of 2): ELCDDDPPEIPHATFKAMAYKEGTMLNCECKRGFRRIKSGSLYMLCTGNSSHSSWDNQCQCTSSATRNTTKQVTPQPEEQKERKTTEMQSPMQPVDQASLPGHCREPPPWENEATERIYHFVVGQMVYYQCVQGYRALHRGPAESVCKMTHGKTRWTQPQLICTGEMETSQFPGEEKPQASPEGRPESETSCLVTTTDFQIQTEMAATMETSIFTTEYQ
T2 sequence (P60568 21-153, chain 2 of 2): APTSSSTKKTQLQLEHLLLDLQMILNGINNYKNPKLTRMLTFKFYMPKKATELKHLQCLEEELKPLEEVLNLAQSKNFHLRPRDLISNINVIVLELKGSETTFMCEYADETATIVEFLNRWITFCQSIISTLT
T1 sequence (P01589 22-240, one chain of several): as the sequence (P01589 22-240, chain 1 of 2) above

B1: C-248 (ssRNA)
RNA: GGGAGGACGAUGCGGCACACCGAAAUGUCCCGACUCAGACGACUCGCCCGA
modifications: 2'-F C and U
Consider B1, for which the binding result in series [1] was “no binding”.

B2: Tr-7 (ssRNA)
RNA: GGGAGGACGAUGCGGUGAGUCGUUCCCUUCGUCCCCAGACGACUCGCCCGA
modifications: 2'-F C and U
On to B2, for which the binding result (in series [2]; with CD25 (IL2RA)-IL2 complex [3]) was “binds” in each case.

B3: Tr-1 (ssRNA)
RNA: GGGAGGACGAUGCGGUCCUGUCGUCUGUUCGUCCCCAGACGACUCGCCCGA
modifications: 2'-F C and U
As for B3, the binding result (in the series with CD25 (IL2RA)-IL2 complex [4]; in series [5]) was “binds” throughout.

B4: Tr-8 (ssRNA)
RNA: GGGAGGACGAUGCGGGCCGUUGUUGUGUGCCGCCCCAGACGACUCGCCCGA
modifications: 2'-F C and U
For B4, in series [6], the binding result is on record as “binds”.

B5: Tr-6 (ssRNA)
RNA: GGGAGGACGAUGCGGCGUUUCCUCUGGUUCGUCCCCAGACGACUCGCCCGA
modifications: 2'-F C and U
Consider B5, for which, in series [6], the binding result is given as “binds”.

B6: Tr-11 (ssRNA)
RNA: GGGAGGACGAUGCGGAUUCUGGUUACUGGCCGCCCCAGACGACUCGCCCGA
modifications: 2'-F C and U
For B6, the binding result (with CD25 (IL2RA)-IL2 complex [7]; in series [2]) was “binds” each time.

The values above are taken from patent US20210180067, “NUCLEIC ACID APTAMERS” (UNIVERSITY OF IOWA RESEARCH FOUNDATION, published 2021).
